assay: yeast display, Sf9 membrane polyspecificity reagent, FACS + sequencing; frameworks hold sequencing errors
Method in brief: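 A nanobody's polyreactivity label depends on the gate it was sorted from. Yeast display cells were stained with 10% biotinylated, detergent-solubilized Sf9 membrane reagent for 1 hour at 4 °C, enriched on streptavidin microbeads and sorted by FACS. The low and high (top ~1%) gates were set on anti-HA fluorescence for expression and streptavidin fluorescence for reagent binding.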

| Sequence | polyreactivity (PSR sort gate) |
| --- | --- |
| QVQLVESGGGLVQAGGSLRLSCAASGSTFDLYAMGWYRQATGKERELVAAISRSGGSTYYADSVKGRFTISRDNEKNTVYLQMNSLKPDDTAVYYCNARWPLGVSRGGMGYWGQGTQVTVSS | high polyreactivity |
| QVQLVESGGGLVQAGGSLRLSCAASGSTFDPNAKGWYRQEPGKERELVAAISKSGGRTYYADSVKGRFTISRDNAKNTVYLQMNSLKPEDTAVYYCNARFGSRYNFFGLRYNYWGLGTQVTVSS | high polyreactivity |
| QVQLVESGGGLVQAGGSLRLSCAASGSTFDPYAMGWYRQAPGIERELVAAITGRGGSTYYADSVKGRFTISRDNAKNTVYLQMNSLKPEDTAVYYCNAEGDKRRDRYDYWGQGSQVTVSS | low polyreactivity |
| QVQLVESGGGLVQAGGSLRLSCAASGSTFDRNAMGWYRQAPGKERELVASITWTGGSTYYADSVKGRFTISRDNAKNTVYLQMNSLKPEDTAVYYCNADLLYLDYLYGLDYWGQGTQVTVSS | high polyreactivity |
| QVQLVESGGGLVQAGGSLRLSCAASGSTFDRNVMGWYRQAPGKERELVAAISRVSSTNYADSVKGRFTISRDNAKNTVYLQMISLKPEDTAVYYCAVDNISNWAVENDYWGQGTQVTVSS | low polyreactivity |
| QVQLVESGGGLVQAGGSLRLSCAASGSTFDRYAMGWYRQAPGKERELVASISRSGGNTYYADSVKGRFTISRDNAKNTVYVPMNSLKPDDTAGYYSNKPIGRYSRNRYGYWGQATQVTVSS | high polyreactivity |
| QVQLVESGGGLVQAGGSLRLSCAASGSTFDRYGMGWYRQAPGKERELVAAISWSGGSTYYADSVKGRFTFSRDNAKNTVYLQMNSLKPEDTAVYYCNAVLYRFAYNYWGQGTQVTVSS | low polyreactivity |
| QVQLVESGGGLVQAGGSLRLSCAASGSTFDRYTMGWYRQAPGKERELVAAISESDGSTYYADSVKGRFTISRDNAKNTVYLLMNSLKPEDTAVYFCAAEWTHYWWYQYDFWGQGTQVTVSS | high polyreactivity |
| QVQLVESGGGLVQAGGSLRLSCAASGSTFDSNTMGWYRQAPGKERELVAAITVSGGSTHYADSVKGRFTNSRYNAKNTVYLQMNSLKPEDTAVYYCNRRSYGYGAFSGYDYWGQGTQVTVSS | low polyreactivity |
| QVQLVESGGGLVQAGGSLRLSCAASGSTFDSYAIGWYRQAPGKERELVAGISIVGSTNYADSVKGRFTISPDNAKNTVYLQLNSLKPEDTAVYYCNAGYFRGSNAIKVRLTYDHWGQGTQVTVSS | low polyreactivity |
| QVQLVESGGGLVQAGGSLRLSCAASGSTFDSYAMGWYRQAPGKERELVAAISRSGGRTYYADSVKGRFTISRDNAKNTVYLQMNSLKPEDTAVYYCAAPVKVGHSLSGGDYWGQGTQVTVSS | high polyreactivity |
| QVQLVESGGGLVQAGGSLRLSCAASGSTFDTYAMGWYRQAPGKERELVAAISRSGTSTYYADSVKGRFTISRDNAKNTVYLQMNSLKPEDTAVYFCNNPWYSYRYGGVGYGYWGQGTQVTVSS | low polyreactivity |
| QVQLVESGGGLVQAGGSLRLSCAASGSTFDYNAMGWYRQAPGKERELVAAISSGGRTYYADSVKGRFTISRDNAKNTVYLQMNSLKPEDTAVYYCAKARTLRYDSWGQGTQVTVSS | low polyreactivity |
| QVQLVESGGGLVQAGGSLRLSCAASGSTFDYYAMGWNRQAPGKERDLVAASTSGSSTYYADSVKGRITISRDNAQNTVYLEMNSLKPEDTAVYYCAARSVYGSSFLSYGYWGQGTQLTVSS | high polyreactivity |
| QVQLVESGGGLVQAGGSLRLSCAASGSTFDYYAMGWYRQAPGKERDLVAGITSDGSTDYADSVKGRFTISRDNAKNTVYLQMNSLKPEDTAVYYCAVDGDPVFYTTYYYSYYYWGQGTQVTVSS | low polyreactivity |
| QVQLVESGGGLVQAGGSLRLSCAASGSTFDYYAMGWYRQAPGKERELVAAIRWSSGRTYYADSVKGRFTISRDNAKNTVYLQMNSLKPEDTAVYYCAARARGRYKRVALDYWGQGTQVTVSS | high polyreactivity |

| Sequence | polyreactivity (PSR sort gate) |
| --- | --- |
| QVQLVESGGGLVQAGGSLRLSCAASGSTFDYYAMGWYRQAPGKERELVAAISSTDGSTFYADSVKGRFTISRDNAKNTVYLQMNSLKPEDTAVYYCAVVGYYYPWPNGYDYWGQGTQVTVSS | low polyreactivity |
| QVQLVESGGGLVQAGGSLRLSCAASGSTFDYYTMGGYRQAPGKERELVAAISSSGGSTYYADSVKGRFTISRDNAKNNVYLQMISLKPEDTAVYYCAADASPYGDVYDYWGQGTQVTVSS | low polyreactivity |
| QVQLVESGGGLVQAGGSLRLSCAASGSTFDYYTMGWYRQAPGKERELVAAISSSGGSTYYADSVKGRFTISRDNAKNTVYLQMNSLKPEDTAVYYCAADPSPYGDEYDYWGQGTQVTVSS | low polyreactivity |
| QVQLVESGGGLVQAGGSLRLSCAASGSTFDYYTMGWYRQAPGKERELVAAITSGGSTNYADSVKGRFTISRDNAKNTVYLQMNSLKPEDTAVYYCAADEWYNNYNCTTYGPEYDSWGQGTQVTVSS | low polyreactivity |
| QVQLVESGGGLVQAGGSLRLSCAASGSTFEANAKGWYRQAPGKERELVAVITWTGGSTYYADSVKGRFTISRDYAKNTVYLQMNSLKPEDTAVYYCAAKFHRFAWYSHYDYWGQGTQVTVSS | low polyreactivity |
| QVQLVESGGGLVQAGGSLRLSCAASGSTFEAYAMGWYRQAPGKERELVAAIRSSGSTSYADSVKGRFTISRDNAKNTVYLQMNSLKPVDTAVYYCAARVRGYPRYKRDYWGQGTQVTVSS | high polyreactivity |
| QVQLVESGGGLVQAGGSLRLSCAASGSTFEAYAMGWYRQAPGKERELVAAITWSSGSTYYADSVKGRFTISRDNAKNTVYLQMNSLKPEDTAVYYCNKDWLAYDSLRVPSTIAFDYWGQGTQVTVSS | low polyreactivity |
| QVQLVESGGGLVQAGGSLRLSCAASGSTFEDNAMGWYRQAPGKERELVAAITSGGNTYYADSVKGRFTISRDNAMNTVYLQMNSLKPDDTAVYYCNAVPFYYDFDYWGQGTQVTVSS | low polyreactivity |
| QVQLVESGGGLVQAGGSLRLSCAASGSTFEFNDMGRYRPAPGKERELVASIRHSDGSRYYADSVKGRFTISRDNAKNTVYLQMIILKPEDTAVYDCNKAFQWSGGQVSYDYWGQGTQVTVSS | low polyreactivity |
| QVQLVESGGGLVQAGGSLRLSCAASGSTFEGNAMGWYRQAPGKERELVAAITSGGSTNYADSVKGRFTISRDNAKNNVYLQMNSLKPEDTAVYYCAADTVSFSILYDYWGQGTQVTVSS | low polyreactivity |
| QVQLVESGGGLVQAGGSLRLSCAASGSTFELYAMGWYRQAPGKERDFVAAITYDSTYYADSVKGRFTISRDNAKNTVYLQMNSLKPEDTAVYYCAAAYWHYYYGWDMYYWGQGTQVTVST | high polyreactivity |
| QVQLVESGGGLVQAGGSLRLSCAASGSTFENYAMGWSRQAPGKERELVAAISWSGGSTYYADSVKGRFTISRDNAKNTVYLQMNSLKPEDTAVYYCNAELYLRWGVTVTFDYWGQGTQVTVSS | low polyreactivity |
| QVQLVESGGGLVQAGGSLRLSCAASGSTFEPYARGWYRQAPGKERELVAAISSSGSTNYADSVKGRFTISRDNAKNTVYLQMNSLKPEDTAVYYCNARRQRSPIEVCERGYWGQGTQVTVSS | high polyreactivity |
| QVQLVESGGGLVQAGGSLRLSCAASGSTFERYAMGWYRQAPGKKWSWLPYADSVKGRFTISRDNAKNTVYLQMNSLKPEDTAVYYCNAERDSPPLNLDRGWEYDYWGQGTQVTVSS | low polyreactivity |
| QVQLVESGGGLVQAGGSLRLSCAASGSTFESNAMGWYRQAPGKERELVAAISYIDTSTYYADSVKGRFTISRDNAKNTVYLQMNSLKPEDTAVYYCATDVDWAYGYQYEYWGQGTQVTVSS | low polyreactivity |

Source: the nanobody polyreactivity screen of Harvey et al. (2022)
